Laboratory results from patent US20120121603A1 (THERACLONE SCIENCES, published 2012).

Target: T1, M2 protein expressed on the surface of PR8-infected MDCK cells (Influenza A virus A/Puerto Rico/8/1932 …, UniProt P06821 1-97)
T1 construct: whole, on cells
Test: FMAT, crude supernatant on PR8-infected MDCK cells

T1 sequence (P06821 whole entry): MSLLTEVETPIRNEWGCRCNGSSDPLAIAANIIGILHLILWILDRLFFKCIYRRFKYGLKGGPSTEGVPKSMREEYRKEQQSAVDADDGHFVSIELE

B1: 23K12 (antibody, V domains shown)
VH: EVQLVESGGGLVQPGGSLRISCAASGFTVSSNYMSWVRQAPGKGLEWVSVIYSGGSTYYADSVKGRFSFSRDNSKNTVFLQMNSLRAEDTAVYYCARCLSRMRGYGLDVWGQGTTVTVS
VL: DIQMTQSPSSLSASVGDRVTITCRTSQSISSYLNWYQQKPGKAPKLLIYAASSLQSGVPSRFSGSGSGTDFTLTISGLQPEDFATYYCQQSYSMPAFGQGTKLEIK
- binding result: binds
